From patent US20240182536A1 (MURAL ONCOLOGY, published 2024)
Changes are numbered by the printed parent chain. Names may count otherwise.

T1: IL-18 receptors on HEK-Blue IL-18 reporter cells (UniProt Q13478 19-541; O95256 20-599, limits assumed)
T1 sequence (looked up) 1: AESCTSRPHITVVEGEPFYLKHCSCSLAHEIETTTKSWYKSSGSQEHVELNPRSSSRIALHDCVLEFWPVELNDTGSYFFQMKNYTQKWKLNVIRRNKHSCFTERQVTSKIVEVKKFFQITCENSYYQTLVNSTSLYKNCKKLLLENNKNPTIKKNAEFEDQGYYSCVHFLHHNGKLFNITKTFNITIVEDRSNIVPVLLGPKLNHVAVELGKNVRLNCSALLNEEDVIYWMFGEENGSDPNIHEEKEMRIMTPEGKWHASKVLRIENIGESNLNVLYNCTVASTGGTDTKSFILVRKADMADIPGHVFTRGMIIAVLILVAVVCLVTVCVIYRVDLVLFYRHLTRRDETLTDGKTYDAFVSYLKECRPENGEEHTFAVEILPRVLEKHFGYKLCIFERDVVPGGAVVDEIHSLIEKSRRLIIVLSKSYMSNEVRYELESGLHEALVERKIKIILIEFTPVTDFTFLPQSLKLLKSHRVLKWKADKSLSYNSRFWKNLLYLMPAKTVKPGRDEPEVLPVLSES
T1 sequence (looked up) 2: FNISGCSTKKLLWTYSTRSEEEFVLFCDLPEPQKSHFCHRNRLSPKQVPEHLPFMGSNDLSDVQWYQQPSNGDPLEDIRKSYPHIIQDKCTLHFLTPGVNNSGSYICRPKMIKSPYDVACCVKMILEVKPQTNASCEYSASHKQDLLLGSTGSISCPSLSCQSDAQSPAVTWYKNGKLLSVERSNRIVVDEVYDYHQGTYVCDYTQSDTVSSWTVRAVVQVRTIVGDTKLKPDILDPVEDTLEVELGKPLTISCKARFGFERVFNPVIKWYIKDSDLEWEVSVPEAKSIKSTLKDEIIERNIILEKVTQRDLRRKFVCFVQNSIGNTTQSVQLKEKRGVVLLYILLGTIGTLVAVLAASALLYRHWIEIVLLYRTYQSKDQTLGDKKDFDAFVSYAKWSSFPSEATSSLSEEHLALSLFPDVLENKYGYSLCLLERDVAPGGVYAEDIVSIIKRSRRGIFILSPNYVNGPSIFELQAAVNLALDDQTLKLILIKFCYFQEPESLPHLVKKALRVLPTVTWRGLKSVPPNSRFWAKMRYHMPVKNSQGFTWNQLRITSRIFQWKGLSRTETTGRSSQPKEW

T2: IL-18 binding protein (IL-18BP) (UniProt O95998 31-194)
T2 sequence (looked up): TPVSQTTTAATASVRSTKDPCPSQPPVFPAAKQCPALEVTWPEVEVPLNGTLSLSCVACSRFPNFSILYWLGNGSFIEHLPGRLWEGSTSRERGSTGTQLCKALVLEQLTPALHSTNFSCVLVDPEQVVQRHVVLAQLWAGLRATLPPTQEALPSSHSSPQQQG

B1: IL-18 variant G3V, E6Q, T34P, D54M, S55F, N91R, R104H (ligand)
chain: YFVKLQSKLSVIRNLNDQVLFIDQGNRPLFEDMPDSDMRDNAPRTIFIISMYKMFQPRGMAVTISVKSEKISTLSSENKIISFKEMNPPDRIKDTKSDIIFFQHSVPGHDNKMQFESSSYEGYFLASEKERDLFKLILKKEDELGDRSIMFTVQNED
B2: IL-18 variant G3Q, E6D, K53S, D54I, S55E, T63S, N91S, R104Q (ligand)
chain: B1 chain with V3Q, Q6D, P34T, K53S, M54I, F55E, T63S, R91S, H104Q
B3: IL-18 variant G3P, E6D, K53T, D54N, T63A, N91T, R104P (ligand)
chain: B1 chain with V3P, Q6D, P34T, K53T, M54N, F55S, T63A, R91T, H104P
B4: IL-18 variant E6N, D54N, S55N, N91H, R104P (ligand)
chain: B1 chain with V3G, Q6N, P34T, M54N, F55N, R91H, H104P
B5: IL-18 variant G3P, E6K, K53N, D54S, S55P, T63S, N91S, R104Q (ligand)
chain: B1 chain with V3P, Q6K, P34T, K53N, M54S, F55P, T63S, R91S, H104Q
B6: IL-18 variant G3P, E6G, D54P, S55W, N91E, R104K (ligand)
chain: B1 chain with V3P, Q6G, P34T, M54P, F55W, R91E, H104K
B7: IL-18 variant G3P, E6K, K53T, D54Y, S55V, T63I, N91I (ligand)
chain: B1 chain with V3P, Q6K, P34T, K53T, M54Y, F55V, T63I, R91I, H104R
B8: IL-18 variant G3P, E6N, D54Y, T63S, N91S, R104Q (ligand)
chain: B1 chain with V3P, Q6N, P34T, M54Y, F55S, T63S, R91S, H104Q

How the values were obtained:
[1] = target: T1, IL-18 receptors on HEK-Blue IL-18 …; experiment: cell-based or functional assay
[2] = target: T2, IL-18 binding protein (IL-18BP); experiment: cell-based or functional assay

| Binder | Activity, No BP, DF-100000 [1] | Activity, No BP, DF-500000 [1] | Activity, No BP, DF-2500000 [1] | Activity, +100 nM BP, DF-1000002 [2] | Activity, +100 nM BP, DF-5000003 [2] | Activity, +100 nM BP, DF-25000004 [2] | Ratio (-BP/+BP), DF-1000005 [2] | Ratio (-BP/+BP), DF-5000006 [2] | Ratio (-BP/+BP), DF-25000007 [2] |
| --- | --- | --- | --- | --- | --- | --- | --- | --- | --- |
| B1 | 0.97 | 0.41 | 0.13 | 0.14 | 0.08 | 0.08 | 6.88 | 4.95 | 1.77 |
| B2 | 0.09 | 0.07 | 0.07 | 0.12 | 0.09 | 0.11 | 0.73 | 0.8 | 0.68 |
| B3 | 0.07 | 0.07 | 0.07 | 0.07 | 0.08 | 0.07 | 0.95 | 0.92 | 1.01 |
| B4 | 0.08 | 0.07 | 0.07 | 0.08 | 0.08 | 0.09 | 0.99 | 0.93 | 0.78 |
| B5 | 0.07 | 0.08 | 0.07 | 0.07 | 0.07 | 0.07 | 0.92 | 1.03 | 0.95 |
| B6 | 0.09 | 0.08 | 0.07 | 0.09 | 0.1 | 0.07 | 0.98 | 0.84 | 0.92 |
| B7 | 0.26 | 0.11 | 0.07 | 0.32 | 0.11 | 0.08 | 0.81 | 1.01 | 0.93 |
| B8 | 0.21 | 0.1 | 0.07 | 0.25 | 0.1 | 0.08 | 0.86 | 1.02 | 0.89 |
